{"source": "paper PMC11143242", "about": "(Nature Communications, 2024)", "details_in_all_cases": "both partners purified", "key": {"VARV B7": {"target": "VARV B7 (Variola virus, India-1967, UniProt Q76QZ2)", "experiment": "SPR"}, "CPXV CPXV199": {"target": "CPXV CPXV199 (Cowpox virus, Brighton Red, UniProt Q8QMP6)", "experiment": "SPR"}, "MPXV B6 protein": {"target": "MPXV B6 protein (Monkeypox virus, clade II …)", "experiment": "SPR; antibodies (0.5 ug/mL) […]; BIAcore 8K, 25 °C, […]; 1:1 Langmuir model"}, "MPXV B6 (T20-H279)": {"target": "MPXV B6 (T20-H279) (Monkeypox virus, clade II …)", "experiment": "ELISA"}, "[1]": {"target": "MPXV B6 SCR1-2-3 (T20-K185) (Monkeypox virus, clade II …)", "experiment": "ELISA"}, "[2]": {"target": "MPXV B6 SCR1-2-3-4 (T20-N241) (Monkeypox virus, clade II …)", "experiment": "ELISA"}, "[3]": {"target": "MPXV B6 SCR1-2 (T20-E129) (Monkeypox virus, clade II …)", "experiment": "ELISA"}}}
{"binder": "hMB621 (antibody, V domains shown) VH: QVQLVQSGGGVVQPGRSLRLSCVASGFSISTYPLHWVRQAPGKGLEWVAVISHDGRNKYYADSVKGRFSISRDNSKNTVYLQMNSLRVEDTAVYYCARAYPYAFDVWGQGTLVTVSS VL: EIVLTQSPATLSVSPGETATLSCRASQSVRNDLAWYQQKPGQAPRLLIYGASTRASGIPARFSGSGSGTEFTLTISSLQSEDFAIYYCQQYKDWPPWTFGQGTKVEIK", "values": [{"measurement": "binding result", "setting": "VARV B7", "value": "binds"}, {"measurement": "binding result", "setting": "CPXV CPXV199", "value": "binds"}, {"measurement": "Kd", "setting": "MPXV B6 protein", "value": 1.9, "unit": "nM"}, {"measurement": "binding result", "setting": "MPXV B6 (T20-H279)", "value": "binds"}, {"measurement": "binding result", "setting": "[1]", "value": "binds"}, {"measurement": "binding result", "setting": "[2]", "value": "binds"}]}
{"binder": "hMB668 (antibody, V domains shown, also called MAb hMB668; source: Expi293F, transient transfection, purified (Protein A, gel filtration)) VH: QVQLVQSGAEVKKPGSSVKVSCKSSGGTFSDYAINWVRQAPGQGLEWMGRILPIVGVPNYAQKFQGRVTITADKSSSTAYKEVSGLRSEDTAVYYCARRSGINGHGLDVWGQGTTVIVSS VL: DIVMTQSPLSLPVTPGEPASISCRSSQSLLNTNGYNYLEWYLHKPGQSPQLLIYLGSHRASGVPDRFSGSGSGTDFTLKISRAEPEDVGVYYCMQTLQTQGYTFGQGTKLEIK", "values": [{"measurement": "binding result", "setting": "VARV B7", "value": "binds"}, {"measurement": "binding result", "setting": "CPXV CPXV199", "value": "binds"}, {"measurement": "Kd", "setting": "MPXV B6 protein", "value": 6.2, "unit": "nM"}, {"measurement": "binding result", "setting": "MPXV B6 (T20-H279)", "value": "binds"}, {"measurement": "binding result", "setting": "[3]", "value": "binds"}, {"measurement": "binding result", "setting": "[1]", "value": "binds"}, {"measurement": "binding result", "setting": "[2]", "value": "binds"}]}
